Data reported in paper PMC8723827 (2022).

B1: Beta-55 mAb (IgG) (antibody, V domains shown)
VH: QVQLQESGPGLVKPSETLSLTCTVSGDSISSSRYYWGWIRQPPGKGLEWIGTFYYSGITYYNPSLKSRVTIFVDTSKNQFSLKLSSVTAADTAVYYCARPRPPDYYDNSGALLFDIWGQGTMVTVSS
VL: AIRMTQSPSTLSASVGDRVTIACRASQSISAWLAWYQQKPGKAPKLLIYKASSLESGVPSRFSGSGSGTEFTLTINSLQPDDFATYYCQQYISSSPWTFGQGTKVEIK
B2: EY6A mAb (IgG) (antibody, V domains shown)
VH: EVQLVESGGGVVQPGRSLRLSCAASAFTFSSYDMHWVRQAPGKGLEWVAVISYDGSNKYYADSVKGRFTISRDNSKNTLYLQMNSLRAEDTAVYYCAKDGGKLWVYYFDYWGQGTLVTVSS
VL: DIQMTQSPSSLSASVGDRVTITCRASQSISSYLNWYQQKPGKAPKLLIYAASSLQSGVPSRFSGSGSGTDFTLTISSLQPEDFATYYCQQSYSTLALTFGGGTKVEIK

Biological target: His-tagged SARS-CoV-2 RBD (early pandemic, Wuhan) (SARS-CoV-2, UniProt P0DTC2)
Assay: SPR

Binder	koff [s⁻¹]
B1	0.00018
B2	0.0048
